Laboratory results as given in article PMC11039692, “SRY-Box transcription factor 9 triggers YAP nuclear entry via direct interaction in tumors” (Signal Transduction and Targeted Therapy, 2024).

System: FLAG-YAP
Assay: In vitro protein pull-down assay
Assay type: binding
Settings: recombinant GST-SOX9 20 μM and FLAG-YAP 20 μM, FLAG beads, overnight at 4 °C
Protocol: FLAG-YAP protein (20 μM) purified from SF9 was incubated with 20 μM GST-SOX9 protein (Abcam, ab131911), GST protein, or blank control in the presence of FLAG beads (Sigma-Aldrich, A2220) overnight at 4 °C. Following this, the beads were washed two times in binding and wash buffer (20 mM Tris [pH 8.0], 150 mM NaCl, 0.5% NP40, 0.5% TritonX-100, 1 mM DTT, and 10% glycerol), and one wash with high salt buffer (20 mM Tris [pH 8.0], 250 mM NaCl, 0.5% NP40, 0.5% TritonX-100, 1 mM DTT, and 10% glycerol). The slurry was boiled with SDS buffer and then subjected to immunoblot.

B1: SOX9: recombinant GST-SOX9 protein (Abcam, ab131911) (protein)
chain: MNLLDPFMKMTDEQEKGLSGAPSPTMSEDSAGSPCPSGSGSDTENTRPQENTFPKGEPDLKKESEEDKFPVCIREAVSQVLKGYDWTLVPMPVRVNGSSKNKPHVKRPMNAFMVWAQAARRKLADQYPHLHNAELSKTLGKLWRLLNESEKRPFVEEAERLRVQHKKDHPDYKYQPRRRKSVKNGQAEAEEATEQTHISPNAIFKALQADSPHSSSGMSEVHSPGEHSGQSQGPPTPPTTPKTDVQPGKADLKREGRPLPEGGRQPPIDFRDVDIGELSSDVISNIETFDVNEFDQYLPPNGHPGVPATHGQVTYTGSYGISSTAATPASAGHVWMSKQQAPPPPPQQPPQAPPAPQAPPQPQAAPPQQPAAPPQQPQAHTLTTLSSEPGQSQRTHIKTEQLSPSHYSEQQQHSPQQIAYSPFNLPHYSPSYPPITRSQYDYTDHQNSSSYYSHAAGQGTGLYSTFTYMNPAQRPMYTPIADTSGVPSIPQTHSPQHWEQPVYTQLTRP
B1 was tested. Which “direct interaction with YAP (pull-down)” value did it give?
Its value is “demonstrated the direct interaction between SOX9 and YAP”.
